From paper PMC7374751

Columns and labels:
[1] = target: full length MMP-1 (human); experiment: enzyme activity of pre-formed complexes against synthetic substrates; 10 nM [35S]TIMP-3 incubated with an equimolar concentration of metalloproteinase for 1 h at 37 °C; complex formation and stability over 24 h checked by activity
[2] = target: ADAMTS-5 (of the inhibition assays) (UniProt Q9UNA0); experiment: enzyme inhibition kinetics (fluorogenic peptide substrates); apparent Ki; enzyme pre-incubated with TIMP-3 (0.5-100 nM) 1 h at 37 °C, equilibrium rate of substrate hydrolysis; TNC buffer (50 mM Tris-HCl pH 7.5, 150 mM NaCl, 10 mM CaCl2, 0.05% Brij-35, 0.02% NaN3), 37 °C; tight-binding equation

Sequence of full length MMP-1 (human) (P03956 100-469): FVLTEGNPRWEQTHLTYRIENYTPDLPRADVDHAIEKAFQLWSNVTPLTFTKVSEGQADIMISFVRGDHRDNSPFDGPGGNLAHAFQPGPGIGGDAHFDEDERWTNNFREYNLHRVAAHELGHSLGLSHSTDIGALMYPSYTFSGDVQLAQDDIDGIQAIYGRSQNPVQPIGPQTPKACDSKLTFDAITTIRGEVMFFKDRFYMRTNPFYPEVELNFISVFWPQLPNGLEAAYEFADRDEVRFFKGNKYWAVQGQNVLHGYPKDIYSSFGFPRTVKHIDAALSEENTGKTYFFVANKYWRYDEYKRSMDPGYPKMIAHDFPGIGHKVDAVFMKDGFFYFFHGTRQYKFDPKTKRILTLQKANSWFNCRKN

stoichiometry N [1]: 1
Ki [2]: 1.91 nM
B1: FLAG-tagged TIMP-3 (natural protein)
chain: CTCSPSHPQDAFCNSDIVIRAKVVGKKLVKEGPFGTLVYTIKQMKMYRGFTKMPHVQYIHTEASESLCGLKLEVNKYQYLLTGRVYDGKMYTGLCNFVERWDQLTLSQRKGLNYRYHLGCNCKIKSCYYLPCFVTSKNECLWTDMLSNFGYPGYQSKHYACIRQKGGYCSWYRGWAPPDKSIINATDP
